# Reference: paper doi:10.1101/089938v2
# Tests used:
# [1] = substrate: C[C@H](N)C(=O)O; assay: racemization assay, HPLC of derivatized L- and D-Ala; assay type: biochemical, Streptomyces coelicolor; conditions: L- to D-Ala direction
# [2] = substrate: C[C@@H](N)C(=O)O; assay: as above; assay type: biochemical, Streptomyces coelicolor; conditions: D- to L-Ala direction
protein,measurement,setting,value
"AlrSco (alanine racemase from Streptomyces coelicolor A3(2), SCO4745) (Streptomyces coelicolor A3(2)) (protein) MSETTARRDADAVLRARAEIDLAALRANVRALRERAPGAALMAVVKADAYGHGAIPCARAAVAAGATWLGTATPQEALALRAAEPGLPDDVRIMCWLWTPGGPWREAVEARLDVSVSAMWAMEEVTGAARAAGVPARVQLKADTGLGRGGCQPGADWERLVGAALRAEEEGLLRVTGLWSHFACADEPGHPSIAAQLTRFREMTAYAEQRGLRPEVRHIANSPATLTLPDAHFDLVRPGIAMYGVSPSPEIGTPADFGLRPVMTLAASLALVKQVPGGHGVSYGHHYTTPGETTLGLVPLGYADGIPRHASSSGPVLVDGKWRTVAGRIAMDQFVVDLGGDRPEPGAEAVLFGPGDRGEPTAEDWAQAAGTIAYEIVTRIGSRVPRVYVNE",Km,[1],6.3 mM
same,Km,[2],8.9 mM
